Measurements: the supplement of paper PMC6757056
± gives the standard deviation of the averaged measurements.

B1: library; a variant is named by its letters at N, in order (parent)
chain: GCUGUCACCGAGAAACUGUGAAGUAUAUCUUAAACCUGGGCACUUAAAAGAUAUAUGGAGUUAGUAGUGCAACCUGCUCGGUCUGAUGAGUCCNNNNNNGGACGAAACAGC

What was measured:
cyclic di-GMP [1] = variants of: B1; assay: normalized RNA/DNA level without ligand (relative to sTRSVctl = 100) (log10 (% of sTRSVctl)); HEK293T; ligand: cyclic di-GMP (c-di-GMP-II aptamer); higher = less ribozyme self-cleavage, higher mRNA level; conditions: reporter: mCherry (pCS4076), ligand present: no
Summary of the method: (§1)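 Ribozyme switch library plasmids with mCherry reporters (eGFP in certain ligand experiments) went into HEK293T cells at 4 µg per 6-well well. Where ligand was used, it was applied 1 h before transfection, and total RNA was extracted with EDTA 72 h later for reverse transcription, amplification, barcoding and sequencing. RNA level is the RNA-to-DNA read ratio normalized to a spiked-in non-cleaving sequence or to the leading sequences, then scaled and log-transformed. Scaling was ×100 with log10, the leading set comprised 25 sequences, and the cutoff was ≥100 DNA reads.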

cyclic di-GMP [2] = variants of: B1; assay: normalized RNA/DNA level with ligand (relative to sTRSVctl = 100) (log10 (% of sTRSVctl)); HEK293T; ligand: cyclic di-GMP (c-di-GMP-II aptamer); ligand concentration (+) RNA-Seq: 1 mM; higher = less ribozyme self-cleavage, higher mRNA level; conditions: reporter: mCherry (pCS4076), ligand present: yes
Summary of the method: as §1

| Variant | normalized RNA/DNA level without ligand (log10) (cyclic di-GMP [1]) | normalized RNA/DNA level with ligand (log10) (cyclic di-GMP [2]) |
| --- | --- | --- |
| GCUGUCACCGAGAAACUGUGAAGUAUAUCUUAAACCUGGGCACUUAAAAGAUAUAUGGAGUUAGUAGUGCAACCUGCUCGGUCUGAUGAGUCCUGUUCGGGACGAAACAGC | 1.8 ± 0.023 | 1.89 ± 0.12 |
| GCUGUCACCGAGAAACUGUGAAGUAUAUCUUAAACCUGGGCACUUAAAAGAUAUAUGGAGUUAGUAGUGCAACCUGCUCGGUCUGAUGAGUCCGCAUGCGGACGAAACAGC | 1.68 ± 0.026 | 1.81 ± 0.097 |
| GCUGUCACCGAGAAACUGUGAAGUAUAUCUUAAACCUGGGCACUUAAAAGAUAUAUGGAGUUAGUAGUGCAACCUGCUCGGUCUGAUGAGUCCGGUUUAGGACGAAACAGC | 1.582 ± 0.0053 | 1.79 ± 0.099 |
| GCUGUCACCGAGAAACUGUGAAGUAUAUCUUAAACCUGGGCACUUAAAAGAUAUAUGGAGUUAGUAGUGCAACCUGCUCGGUCUGAUGAGUCCUCCACAGGACGAAACAGC | 1.74 ± 0.035 | 1.87 ± 0.12 |
| GCUGUCACCGAGAAACUGUGAAGUAUAUCUUAAACCUGGGCACUUAAAAGAUAUAUGGAGUUAGUAGUGCAACCUGCUCGGUCUGAUGAGUCCUUCUUAGGACGAAACAGC | 1.76 ± 0.095 | 1.87 ± 0.15 |
| GCUGUCACCGAGAAACUGUGAAGUAUAUCUUAAACCUGGGCACUUAAAAGAUAUAUGGAGUUAGUAGUGCAACCUGCUCGGUCUGAUGAGUCCGUACUCGGACGAAACAGC | 1.54 ± 0.099 | 1.75 ± 0.041 |
| GCUGUCACCGAGAAACUGUGAAGUAUAUCUUAAACCUGGGCACUUAAAAGAUAUAUGGAGUUAGUAGUGCAACCUGCUCGGUCUGAUGAGUCCCUUACUGGACGAAACAGC | 1.59 ± 0.079 | 1.79 ± 0.048 |
| GCUGUCACCGAGAAACUGUGAAGUAUAUCUUAAACCUGGGCACUUAAAAGAUAUAUGGAGUUAGUAGUGCAACCUGCUCGGUCUGAUGAGUCCGGUGUUGGACGAAACAGC | 1.63 ± 0.037 | 1.86 ± 0.094 |
| GCUGUCACCGAGAAACUGUGAAGUAUAUCUUAAACCUGGGCACUUAAAAGAUAUAUGGAGUUAGUAGUGCAACCUGCUCGGUCUGAUGAGUCCCAUUUGGGACGAAACAGC | 1.75 ± 0.062 | 1.91 ± 0.095 |
| GCUGUCACCGAGAAACUGUGAAGUAUAUCUUAAACCUGGGCACUUAAAAGAUAUAUGGAGUUAGUAGUGCAACCUGCUCGGUCUGAUGAGUCCGCGUCAGGACGAAACAGC | 1.624 ± 0.0059 | 1.79 ± 0.15 |
| GCUGUCACCGAGAAACUGUGAAGUAUAUCUUAAACCUGGGCACUUAAAAGAUAUAUGGAGUUAGUAGUGCAACCUGCUCGGUCUGAUGAGUCCUAUUCAGGACGAAACAGC | 1.8 ± 0.032 | 1.88 ± 0.053 |
| GCUGUCACCGAGAAACUGUGAAGUAUAUCUUAAACCUGGGCACUUAAAAGAUAUAUGGAGUUAGUAGUGCAACCUGCUCGGUCUGAUGAGUCCGUGAGUGGACGAAACAGC | 1.59 ± 0.053 | 1.77 ± 0.11 |
| GCUGUCACCGAGAAACUGUGAAGUAUAUCUUAAACCUGGGCACUUAAAAGAUAUAUGGAGUUAGUAGUGCAACCUGCUCGGUCUGAUGAGUCCUUCUACGGACGAAACAGC | 1.75 ± 0.025 | 1.9 ± 0.035 |
| GCUGUCACCGAGAAACUGUGAAGUAUAUCUUAAACCUGGGCACUUAAAAGAUAUAUGGAGUUAGUAGUGCAACCUGCUCGGUCUGAUGAGUCCUGUGCUGGACGAAACAGC | 1.71 ± 0.071 | 1.87 ± 0.089 |
| GCUGUCACCGAGAAACUGUGAAGUAUAUCUUAAACCUGGGCACUUAAAAGAUAUAUGGAGUUAGUAGUGCAACCUGCUCGGUCUGAUGAGUCCAAGAGUGGACGAAACAGC | 1.5 ± 0.035 | 1.71 ± 0.12 |
| GCUGUCACCGAGAAACUGUGAAGUAUAUCUUAAACCUGGGCACUUAAAAGAUAUAUGGAGUUAGUAGUGCAACCUGCUCGGUCUGAUGAGUCCAGGACGGGACGAAACAGC | 1.589 ± 0.0076 | 1.7 ± 0.1 |
| GCUGUCACCGAGAAACUGUGAAGUAUAUCUUAAACCUGGGCACUUAAAAGAUAUAUGGAGUUAGUAGUGCAACCUGCUCGGUCUGAUGAGUCCAGGCGCGGACGAAACAGC | 1.74 ± 0.075 | 1.86 ± 0.088 |
| GCUGUCACCGAGAAACUGUGAAGUAUAUCUUAAACCUGGGCACUUAAAAGAUAUAUGGAGUUAGUAGUGCAACCUGCUCGGUCUGAUGAGUCCUUCCCCGGACGAAACAGC | 1.84 ± 0.053 | 1.94 ± 0.14 |
| GCUGUCACCGAGAAACUGUGAAGUAUAUCUUAAACCUGGGCACUUAAAAGAUAUAUGGAGUUAGUAGUGCAACCUGCUCGGUCUGAUGAGUCCUAAUCCGGACGAAACAGC | 1.8 ± 0.031 | 1.89 ± 0.077 |
| GCUGUCACCGAGAAACUGUGAAGUAUAUCUUAAACCUGGGCACUUAAAAGAUAUAUGGAGUUAGUAGUGCAACCUGCUCGGUCUGAUGAGUCCUCGCUAGGACGAAACAGC | 1.46 ± 0.026 | 1.7 ± 0.047 |
| GCUGUCACCGAGAAACUGUGAAGUAUAUCUUAAACCUGGGCACUUAAAAGAUAUAUGGAGUUAGUAGUGCAACCUGCUCGGUCUGAUGAGUCCAUAACUGGACGAAACAGC | 1.67 ± 0.025 | 1.82 ± 0.068 |
| GCUGUCACCGAGAAACUGUGAAGUAUAUCUUAAACCUGGGCACUUAAAAGAUAUAUGGAGUUAGUAGUGCAACCUGCUCGGUCUGAUGAGUCCAUAACCGGACGAAACAGC | 1.75 ± 0.072 | 1.83 ± 0.1 |
| GCUGUCACCGAGAAACUGUGAAGUAUAUCUUAAACCUGGGCACUUAAAAGAUAUAUGGAGUUAGUAGUGCAACCUGCUCGGUCUGAUGAGUCCAUGCAAGGACGAAACAGC | 1.52 ± 0.029 | 1.66 ± 0.12 |
| GCUGUCACCGAGAAACUGUGAAGUAUAUCUUAAACCUGGGCACUUAAAAGAUAUAUGGAGUUAGUAGUGCAACCUGCUCGGUCUGAUGAGUCCUGGGUUGGACGAAACAGC | 1.717 ± 0.016 | 1.82 ± 0.16 |
| GCUGUCACCGAGAAACUGUGAAGUAUAUCUUAAACCUGGGCACUUAAAAGAUAUAUGGAGUUAGUAGUGCAACCUGCUCGGUCUGAUGAGUCCACUUGGGGACGAAACAGC | 1.59 ± 0.048 | 1.75 ± 0.13 |
| GCUGUCACCGAGAAACUGUGAAGUAUAUCUUAAACCUGGGCACUUAAAAGAUAUAUGGAGUUAGUAGUGCAACCUGCUCGGUCUGAUGAGUCCACUUGUGGACGAAACAGC | 1.668 ± 0.004 | 1.83 ± 0.1 |
